Starred links: 1 amine or outer side, 2 acyl side, 3 side chain; linkers in the order of their positions; H or OH if unused. Non-standard residues stand in square brackets, D forms with d. Groups on a side chain read outwards from the residue. No end group written: not given here. *: point of attachment. dpeg = —[CO(CH2)O(CH2)2O(CH2)NH]— spacer, O=C(COCCOCN[*:1])[*:2]; C20 diacid = O=C(O)CCCCCCCCCCCCCCCCCCC(=O)*; γGlu = O=C(O)[C@H](CCC(=O)[*:2])N[*:1]
Legend:
NPY2R = target: T1, NPY2R; test: cell-based or functional assay
T1 sequence (P49146 1-381, species assumed, looked up): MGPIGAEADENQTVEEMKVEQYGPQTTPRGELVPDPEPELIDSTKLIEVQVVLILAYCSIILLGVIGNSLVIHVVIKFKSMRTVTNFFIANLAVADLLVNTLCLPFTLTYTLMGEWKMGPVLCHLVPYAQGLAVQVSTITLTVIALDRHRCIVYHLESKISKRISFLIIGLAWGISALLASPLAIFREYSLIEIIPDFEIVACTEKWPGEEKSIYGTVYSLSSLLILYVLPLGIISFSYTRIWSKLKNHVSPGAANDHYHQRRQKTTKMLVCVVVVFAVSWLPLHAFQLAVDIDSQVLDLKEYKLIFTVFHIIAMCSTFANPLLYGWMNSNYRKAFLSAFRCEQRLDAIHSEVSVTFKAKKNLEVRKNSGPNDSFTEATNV

NPY5R = target: T2, NPY5R; test: cell-based or functional assay
T2 sequence (Q15761 1-445, species assumed, looked up): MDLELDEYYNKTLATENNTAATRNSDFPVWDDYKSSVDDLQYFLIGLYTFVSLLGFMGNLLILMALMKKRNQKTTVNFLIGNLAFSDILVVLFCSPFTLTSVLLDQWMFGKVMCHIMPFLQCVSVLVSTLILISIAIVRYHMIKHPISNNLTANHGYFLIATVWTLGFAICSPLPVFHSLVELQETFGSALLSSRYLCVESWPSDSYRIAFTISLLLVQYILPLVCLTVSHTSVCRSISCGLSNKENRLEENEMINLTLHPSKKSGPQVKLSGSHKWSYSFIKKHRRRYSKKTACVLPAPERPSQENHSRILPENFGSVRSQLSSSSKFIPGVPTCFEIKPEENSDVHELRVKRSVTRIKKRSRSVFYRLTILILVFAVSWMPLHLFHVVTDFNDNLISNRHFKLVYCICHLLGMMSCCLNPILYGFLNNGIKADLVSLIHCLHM

PKPEAPG[dK]([γGlu-γGlu-C20 diacid])DASPEEWNRYYADLRHYLNWLTRQRF-NH2 [Compound A15] was tested, and the “NPY2R pEC50” value (NPY2R) was 10.2 -Log(EC50, M) and the “NPY5R pEC50” value (NPY5R) was 8 -Log(EC50, M).

PKPEAPGKDASPEEWNRYYK([γGlu-dpeg-dpeg-γGlu-C20 diacid])DLRHYLNWLTRQRF-NH2 [Compound A16] was tested, and the “NPY2R pEC50” value (NPY2R) was 10.2 -Log(EC50, M) and the “NPY5R pEC50” value (NPY5R) was 9.1 -Log(EC50, M).

B1: Compound A17 (peptide)
peptide: PKPEAPGK([γGlu-dpeg-dpeg-γGlu-C20 diacid])DASPEEWNRYYADLRHYLNWLTRQRF-NH2
modifications: N-terminus assumed
SMILES: CC(C)C[C@H](NC(=O)[C@H](CC(=O)O)NC(=O)[C@H](C)NC(=O)[C@H](Cc1ccc(O)cc1)NC(=O)[C@H](Cc1ccc(O)cc1)NC(=O)[C@H](CCCNC(=N)N)NC(=O)[C@H](CC(N)=O)NC(=O)[C@H](Cc1c[nH]c2ccccc12)NC(=O)[C@H](CCC(=O)O)NC(=O)[C@H](CCC(=O)O)NC(=O)[C@@H]1CCCN1C(=O)[C@H](CO)NC(=O)[C@H](C)NC(=O)[C@H](CC(=O)O)NC(=O)[C@H](CCCCNC(=O)CC[C@H](NC(=O)COCCOCNC(=O)COCCOCNC(=O)CC[C@H](NC(=O)CCCCCCCCCCCCCCCCCCC(=O)O)C(=O)O)C(=O)O)NC(=O)CNC(=O)[C@@H]1CCCN1C(=O)[C@H](C)NC(=O)[C@H](CCC(=O)O)NC(=O)[C@@H]1CCCN1C(=O)[C@H](CCCCN)NC(=O)[C@@H]1CCCN1)C(=O)N[C@@H](CCCNC(=N)N)C(=O)N[C@@H](Cc1c[nH]cn1)C(=O)N[C@@H](Cc1ccc(O)cc1)C(=O)N[C@@H](CC(C)C)C(=O)N[C@@H](CC(N)=O)C(=O)N[C@@H](Cc1c[nH]c2ccccc12)C(=O)N[C@@H](CC(C)C)C(=O)N[C@H](C(=O)N[C@@H](CCCNC(=N)N)C(=O)N[C@@H](CCC(N)=O)C(=O)N[C@@H](CCCNC(=N)N)C(=O)N[C@@H](Cc1ccccc1)C(N)=O)[C@@H](C)O
For B1, the “NPY2R pEC50” value (NPY2R) was 10.2 -Log(EC50, M) and the “NPY5R pEC50” value (NPY5R) was 8.7 -Log(EC50, M).

B2: Compound A18 (peptide)
peptide: PKPEAPG[dK]([γGlu-dpeg-dpeg-γGlu-C20 diacid])DASPEEWNRYYADLRHYLNWLTRQRF-NH2
modifications: N-terminus assumed
SMILES: CC(C)C[C@H](NC(=O)[C@H](CC(=O)O)NC(=O)[C@H](C)NC(=O)[C@H](Cc1ccc(O)cc1)NC(=O)[C@H](Cc1ccc(O)cc1)NC(=O)[C@H](CCCNC(=N)N)NC(=O)[C@H](CC(N)=O)NC(=O)[C@H](Cc1c[nH]c2ccccc12)NC(=O)[C@H](CCC(=O)O)NC(=O)[C@H](CCC(=O)O)NC(=O)[C@@H]1CCCN1C(=O)[C@H](CO)NC(=O)[C@H](C)NC(=O)[C@H](CC(=O)O)NC(=O)[C@@H](CCCCNC(=O)CC[C@H](NC(=O)COCCOCNC(=O)COCCOCNC(=O)CC[C@H](NC(=O)CCCCCCCCCCCCCCCCCCC(=O)O)C(=O)O)C(=O)O)NC(=O)CNC(=O)[C@@H]1CCCN1C(=O)[C@H](C)NC(=O)[C@H](CCC(=O)O)NC(=O)[C@@H]1CCCN1C(=O)[C@H](CCCCN)NC(=O)[C@@H]1CCCN1)C(=O)N[C@@H](CCCNC(=N)N)C(=O)N[C@@H](Cc1c[nH]cn1)C(=O)N[C@@H](Cc1ccc(O)cc1)C(=O)N[C@@H](CC(C)C)C(=O)N[C@@H](CC(N)=O)C(=O)N[C@@H](Cc1c[nH]c2ccccc12)C(=O)N[C@@H](CC(C)C)C(=O)N[C@H](C(=O)N[C@@H](CCCNC(=N)N)C(=O)N[C@@H](CCC(N)=O)C(=O)N[C@@H](CCCNC(=N)N)C(=O)N[C@@H](Cc1ccccc1)C(N)=O)[C@@H](C)O
With B2 the “NPY2R pEC50” value (NPY2R) was 10.3 -Log(EC50, M) and the “NPY5R pEC50” value (NPY5R) was 9.3 -Log(EC50, M).

B3: Compound A27 (peptide)
peptide: PKPEKPGK([γGlu-γGlu-C20 diacid])DASPKEWNRYYKDLRHYLNWLTRQRF-NH2
modifications: N-terminus assumed
SMILES: CC(C)C[C@H](NC(=O)[C@H](CC(=O)O)NC(=O)[C@H](CCCCN)NC(=O)[C@H](Cc1ccc(O)cc1)NC(=O)[C@H](Cc1ccc(O)cc1)NC(=O)[C@H](CCCNC(=N)N)NC(=O)[C@H](CC(N)=O)NC(=O)[C@H](Cc1c[nH]c2ccccc12)NC(=O)[C@H](CCC(=O)O)NC(=O)[C@H](CCCCN)NC(=O)[C@@H]1CCCN1C(=O)[C@H](CO)NC(=O)[C@H](C)NC(=O)[C@H](CC(=O)O)NC(=O)[C@H](CCCCNC(=O)CC[C@H](NC(=O)CC[C@H](NC(=O)CCCCCCCCCCCCCCCCCCC(=O)O)C(=O)O)C(=O)O)NC(=O)CNC(=O)[C@@H]1CCCN1C(=O)[C@H](CCCCN)NC(=O)[C@H](CCC(=O)O)NC(=O)[C@@H]1CCCN1C(=O)[C@H](CCCCN)NC(=O)[C@@H]1CCCN1)C(=O)N[C@@H](CCCNC(=N)N)C(=O)N[C@@H](Cc1c[nH]cn1)C(=O)N[C@@H](Cc1ccc(O)cc1)C(=O)N[C@@H](CC(C)C)C(=O)N[C@@H](CC(N)=O)C(=O)N[C@@H](Cc1c[nH]c2ccccc12)C(=O)N[C@@H](CC(C)C)C(=O)N[C@H](C(=O)N[C@@H](CCCNC(=N)N)C(=O)N[C@@H](CCC(N)=O)C(=O)N[C@@H](CCCNC(=N)N)C(=O)N[C@@H](Cc1ccccc1)C(N)=O)[C@@H](C)O
In the case of B3, the “NPY2R pEC50” value (NPY2R) is reported as 10.7 -Log(EC50, M) and the “NPY5R pEC50” value (NPY5R) is reported as 8.9 -Log(EC50, M).

B4: Compound A28 (peptide)
peptide: PKPEKPGKDASPKEWNRYYK([γGlu-γGlu-C20 diacid])DLRHYLNWLTRQRF-NH2
modifications: N-terminus assumed
SMILES: CC(C)C[C@H](NC(=O)[C@H](CC(=O)O)NC(=O)[C@H](CCCCNC(=O)CC[C@H](NC(=O)CC[C@H](NC(=O)CCCCCCCCCCCCCCCCCCC(=O)O)C(=O)O)C(=O)O)NC(=O)[C@H](Cc1ccc(O)cc1)NC(=O)[C@H](Cc1ccc(O)cc1)NC(=O)[C@H](CCCNC(=N)N)NC(=O)[C@H](CC(N)=O)NC(=O)[C@H](Cc1c[nH]c2ccccc12)NC(=O)[C@H](CCC(=O)O)NC(=O)[C@H](CCCCN)NC(=O)[C@@H]1CCCN1C(=O)[C@H](CO)NC(=O)[C@H](C)NC(=O)[C@H](CC(=O)O)NC(=O)[C@H](CCCCN)NC(=O)CNC(=O)[C@@H]1CCCN1C(=O)[C@H](CCCCN)NC(=O)[C@H](CCC(=O)O)NC(=O)[C@@H]1CCCN1C(=O)[C@H](CCCCN)NC(=O)[C@@H]1CCCN1)C(=O)N[C@@H](CCCNC(=N)N)C(=O)N[C@@H](Cc1c[nH]cn1)C(=O)N[C@@H](Cc1ccc(O)cc1)C(=O)N[C@@H](CC(C)C)C(=O)N[C@@H](CC(N)=O)C(=O)N[C@@H](Cc1c[nH]c2ccccc12)C(=O)N[C@@H](CC(C)C)C(=O)N[C@H](C(=O)N[C@@H](CCCNC(=N)N)C(=O)N[C@@H](CCC(N)=O)C(=O)N[C@@H](CCCNC(=N)N)C(=O)N[C@@H](Cc1ccccc1)C(N)=O)[C@@H](C)O
For B4, the “NPY2R pEC50” value (NPY2R) was 10.5 -Log(EC50, M) and the “NPY5R pEC50” value (NPY5R) was 8.8 -Log(EC50, M).
